Source: patent publication US20220195055A1 (SHANDONG BOAN BIOTECHNOLOGY, published 2022)
Where a chain is given by its changes, count along the chain named.

T1: CD25 protein (Sino Biological, 10165-H08H) (UniProt P01589 22-213)
T1 construct: Bought recombinant protein; It speaks elsewhere of human CD25; also called antigen CD25; IL-2Rα
T1 sequence (looked up): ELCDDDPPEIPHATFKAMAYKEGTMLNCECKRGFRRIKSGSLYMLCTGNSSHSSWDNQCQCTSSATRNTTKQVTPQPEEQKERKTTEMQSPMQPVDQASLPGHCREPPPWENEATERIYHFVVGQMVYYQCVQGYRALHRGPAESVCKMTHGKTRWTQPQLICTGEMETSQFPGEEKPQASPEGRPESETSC

T2: CD25 on cells (SU-DHL-1 target cells; PBMC) (UniProt P01589 22-272, limits assumed)
T2 sequence (looked up): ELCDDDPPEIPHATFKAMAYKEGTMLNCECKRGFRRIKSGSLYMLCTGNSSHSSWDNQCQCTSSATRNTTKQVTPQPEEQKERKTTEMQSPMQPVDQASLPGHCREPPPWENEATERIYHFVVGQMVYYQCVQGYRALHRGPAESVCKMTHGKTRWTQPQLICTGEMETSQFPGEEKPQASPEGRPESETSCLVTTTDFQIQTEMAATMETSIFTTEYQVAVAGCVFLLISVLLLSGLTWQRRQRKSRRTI

B1: CD25Q11-CA36-IgG1 (antibody, V domains shown)
VH: QVQLVQSGAEVKQPGSSVKVSCKTSGGTFGSSAINWVRQAPGQGLEWMGRIIPIFGVSNFAQKFQGRVTITADKSTNTAYMELSSLRSEDTAVYYCARDGSGYDSNYWYFDLWGRGTLVTVSS
VL: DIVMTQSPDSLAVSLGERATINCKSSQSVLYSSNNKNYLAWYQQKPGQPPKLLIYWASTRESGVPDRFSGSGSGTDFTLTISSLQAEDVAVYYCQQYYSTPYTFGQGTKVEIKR
notes: IgG1 expressed in HEK293
B2: CD25Q14-CA721-IgG1 (antibody, V domains shown)
VH: QVQLVQSGAEVKKPGESLKISCKGSGYSFANYWIVWVRQMPGKGLEWMGIIYPDDSETRYSPSFQGQVTFSADKSISTAYLQWSSLKASDTAMYYCTRGPYYSDYWGQGTLVTVSS
VL: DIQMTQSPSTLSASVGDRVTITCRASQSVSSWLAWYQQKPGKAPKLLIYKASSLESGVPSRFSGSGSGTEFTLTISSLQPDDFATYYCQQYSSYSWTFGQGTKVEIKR
notes: IgG1 expressed in HEK293
B3: CD25Q14-CA707-IgG1 (antibody, V domains shown)
VH: EVQLVQSGAEVKKPGESLKISCKGSGYSFSNYWIGWVRQMPGKGLEWMGIISPGDSTTKYSPSFQGQVTFSADKSTSTAYLQWSSLQASDTAMYYCVRGPYYLDYWGQGTLVTVSS
VL: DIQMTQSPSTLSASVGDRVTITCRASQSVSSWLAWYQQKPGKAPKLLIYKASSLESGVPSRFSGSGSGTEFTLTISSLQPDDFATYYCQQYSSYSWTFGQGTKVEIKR
notes: IgG1 expressed in HEK293
B4: CD25Q3-BA125-IgG1 (antibody, V domains shown)
VH: B2 VH with Q1E
VL: DIQMTQSPSTLSASVGDRVTITCRASQIISGYLAWYQQKPGKAPKLLIYKASSLESGVPSRFSGSGSGAEFTLTISSLQPDDFATYYCQQYNSYTWTFGQGTKVEIKR
notes: IgG1; also called CD25Q2-BA125
B5: CD25Q14-BA448-IgG1 (antibody, V domains shown)
VH: B2 VH with Q1E, S28N, I51T
VL: B4 VL with I28S, G31S, Y32W, A69T, N92D, S93R, Y94F, T95S
notes: IgG1; The VH is copied as printed. 'YVVGQG' near its end may be a misprint of 'YWGQG'
B6: CD25Q14-CA705-IgG1 (antibody, V domains shown)
VH: B2 VH with Q1E
VL: DIQMTQSPSTLSASVGDRVSITCRASQSIGSWLAWYQQKPGKAPKLLIFEASNLESGVPSRFSGSGSGTEFTLTISNLQPDDFATYYCQQYNSYSLTFGGGTKVEIKR
notes: IgG1 expressed in HEK293
B7: CD25Q11-BA415-IgG1 (antibody, V domains shown)
VH: QVQLVQSGTEVKKPGESLKISCEGVGYSFTTYWIGWVRQMPGKGLEWMGIIYPGDSITRYSPSFQGQVTISADKSINTAYLQWSSLMASDTAMYYCVRGPHWGDYWGQGTLVTVSS
VL: B4 VL with I28S, G31T, Y32W, A69T, T85A, N92S, T95S
notes: IgG1 expressed in HEK293
B8: CD25Q11-BA402-IgG1 (antibody, V domains shown)
VH: B2 VH with A30S, V35A, D54G, E57A, F70I, S77N, K87R, T97A, S103F, D104E
VL: B4 VL with Q3V, I21L, I28S, G31S, S53T, A69T, Q90H, T95S, W96V, Q100G
notes: IgG1 expressed in HEK293
B9: CD25Q2-BA9-IgG1 (antibody, V domains shown)
VH: QVQLQQWGAGLLKPSETLSLTCAVYGGSFSGYYWSWIRQPPGKGLEWIGEIDHSGSTIYNPSLKSRVTISLDTSKNQFSLKLSSVTAADTALYYCARGEAFDIWGQGTMVTVSS
VL: B4 VL with Q3V, I28S, I29L, S30R, G31S, A69T, T95S
notes: IgG1 expressed in HEK293; also called CD25Q-BA9-IgG1
B10: CD25Q11-BA410-IgG1 (antibody, V domains shown)
VH: B9 VH with Y32H, P40S, S56N, T57A, L71I, L92V, I103L
VL: not shown
notes: IgG1 expressed in HEK293
B11: CD25Q14-BA443-IgG1 (antibody, V domains shown)
VH: B3 VH
VL: DIQMTQSPSTLSASVGDRVTITCRASQSVSGYLAWYQQKPGKAPKLLIYKTSSLESGVPSRFSGSGSGTDFTLTISSLQAEDVAVYYCQQYYSTPWTFGQGTKVEIKR
notes: IgG1 expressed in HEK293
B12: CD25Q14-BA458-IgG1 (antibody, V domains shown)
VH: B3 VH
VL: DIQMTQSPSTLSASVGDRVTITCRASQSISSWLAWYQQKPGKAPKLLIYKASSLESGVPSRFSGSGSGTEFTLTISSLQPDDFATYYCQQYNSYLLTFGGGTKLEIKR
notes: IgG1 expressed in HEK293
B13: CD25Q11-BA428-IgG1 (antibody, V domains shown)
VH: B2 VH with A30T, Y52S, D54G, E57T, T97A, R98I, S103L, D104E
VL: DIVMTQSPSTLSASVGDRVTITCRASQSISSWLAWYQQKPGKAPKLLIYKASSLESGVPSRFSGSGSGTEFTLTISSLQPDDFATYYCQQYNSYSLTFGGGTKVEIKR
notes: IgG1 expressed in HEK293
B14: CD25Q11-BA422-IgG1 (antibody, V domains shown)
VH: QVQLVQSGAEVKKPGSSVKVSCKASGGTFSSSAISWVRQAPGQGLDWMGRIIPLLNIADYAQKFQGRVTFTADKSTNTAYMELSSLRSEDTAVYYCARDGSGYDSNYWYFDLWGRGTLVTVSS
VL: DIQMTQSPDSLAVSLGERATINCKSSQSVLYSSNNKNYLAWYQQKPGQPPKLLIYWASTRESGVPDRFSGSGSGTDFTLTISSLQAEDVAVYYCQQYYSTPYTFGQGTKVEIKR
notes: IgG1 expressed in HEK293
B15: CD25Q11-BA406-IgG1 (antibody, V domains shown)
VH: EVQLVQSGAEVKKPGESLKISCKGSGYSFTNYWIAWVRQMPGKGLEWMGIIYPGDSVTRYSPSFQGQVTISADKSINTAYLQWSSLRASDTAMYYCARGPYYFEYWGQGTLVTVSS
VL: DIVMTQSPSTLSASVGDRVTITCRASQSISSFLAWYQQKPGRAPELLIYKASTLESRVPSRFSGSGSGTEFTLTISSLQPEDFATYYCQQYKSFSWTVGQGTKVEIKR
notes: IgG1 expressed in HEK293

These binders were tested against T1, CD25 protein (Sino Biological, …) (assay: SPR (BIAcore 8K); antibody captured by anti-human IgG Fc, CD25 protein as analyte, 1:1 model).
Experimental: Antibody binding kinetics uses BIAcore8K instrument based on surface plasmon resonance (SRP) technology to measure. Anti-human IgG antibody amino was coupled to a CMS biosensor chip by the GE anti Human IgG Fc amino coupling kit (GE, cat # BR-1008-39) to obtain approximately 1000 response units (RU). For kinetic measurements, the CD25 protein (Sino Biological, 10165-H08H) was diluted 2-fold continuously with HBS-EP+1×(GE, BR-1008-26) buffer, starting at 50 nM, being diluted 2-fold for 4 concentration gradients and setting 0 concentration. The antibody to be detected: 2 μg/ml, sample injection time 70 s, flow rate 5 μL/min, stable for 5 s; CD25 protein: binding for 60 s, flow rate 30 μL/min, dissociation for 450 s; regeneration: regeneration was performed for 30 s with 3M MgCl₂ buffer, Startup 3 times. The association constant (ka) and dissociation constant (kd) were calculated using a simple one-to-one Languir binding model (BIAcore Evaluation Software version 3.2), and the equilibrium dissociation constant (KD) was calculated by the ratio kd/ka.

Kd [nM]	koff [s⁻¹]	kon [M⁻¹ s⁻¹]	Binder
1.61	9.66e-05	60200	B1
0.536	0.000365	680000	B2
2.85	0.000944	331000	B3
0.431	0.000301	699000	B4
0.904	0.000531	587000	B5
1.97	0.000752	381000	B6
0.614	0.000199	323000	B7
0.607	0.000212	350000	B8
0.843	0.000586	696000	B9
4.81	0.00674	1.4e+06	B10
1.48	0.000201	136000	B11
0.596	0.000216	362000	B12
0.379	0.00021	555000	B13

These binders were tested against T1, CD25 protein (Sino Biological, …) (assay: ELISA; CD25 protein coated in a dilution series, antibody at one fixed concentration, anti-human IgG/HRP).
Text: (§1) The results are shown in FIG. 2A to FIG. 2E and Table 2 to Table 6.

EC50 [ng/mL]	Binder
3.25	B2
6.42	B3

Target: T1, CD25 protein (Sino Biological, …)
Test: as above
Remark: another data set of the same source
Text: as §1

EC50 [ng/mL]	Binder
1.61	B4
0.674	B8
3.33	B9

The binders below were run against T2, CD25 on cells (SU-DHL-1 target cells; …) (assay: cell-based or functional assay).

Binder	EC50 of simulated killing activity (Jurkat effector reporter cells, SU-DHL-1 target cells, luminescence) [ng/mL]
B4	251
B6	409
B8	443
B9	236
B10	215
B14	836
B13	217

Target: T2, CD25 on cells (SU-DHL-1 target cells; …)
Test: cell-based or functional assay
Remark: another data set of the same source

Binder	EC50 of simulated killing activity (Jurkat effector reporter cells, SU-DHL-1 target cells, luminescence) [ng/mL]
B2	288
B3	248
B7	233
B11	360
B12	266

Target: T1, CD25 protein (Sino Biological, …)
Test: ELISA; CD25 protein coated in a dilution series, antibody at one fixed concentration, anti-human IgG/HRP
Remark: another data set of the same source
Text: as §1

EC50 [ng/mL]	Binder
2.41	B1
4.77	B6
0.941	B7
16.8	B10
0.651	B15

Target: T2, CD25 on cells (SU-DHL-1 target cells; …)
Test: cell-based or functional assay
Remark: another data set of the same source

% PSTAT5 in CD3 positive T cells of PBMC after IL2, with 10 µg/mL antibody [%]	Binder
26.1	B9
16.8	B10
18.1	B14

Target: T1, CD25 protein (Sino Biological, …)
Test: ELISA; CD25 protein coated in a dilution series, antibody at one fixed concentration, anti-human IgG/HRP
Remark: another data set of the same source
Text: as §1

EC50 [ng/mL]	Binder
2.68	B5
1.3	B14
1.06	B11
1	B12
0.597	B13
